Experimental data published in publication PMC9133036 (Nature Communications, 2022).

Target: T1, full-length wild-type human OX2R (pCDNA3, HEK293) (human) (UniProt O43614)
T1 sequence: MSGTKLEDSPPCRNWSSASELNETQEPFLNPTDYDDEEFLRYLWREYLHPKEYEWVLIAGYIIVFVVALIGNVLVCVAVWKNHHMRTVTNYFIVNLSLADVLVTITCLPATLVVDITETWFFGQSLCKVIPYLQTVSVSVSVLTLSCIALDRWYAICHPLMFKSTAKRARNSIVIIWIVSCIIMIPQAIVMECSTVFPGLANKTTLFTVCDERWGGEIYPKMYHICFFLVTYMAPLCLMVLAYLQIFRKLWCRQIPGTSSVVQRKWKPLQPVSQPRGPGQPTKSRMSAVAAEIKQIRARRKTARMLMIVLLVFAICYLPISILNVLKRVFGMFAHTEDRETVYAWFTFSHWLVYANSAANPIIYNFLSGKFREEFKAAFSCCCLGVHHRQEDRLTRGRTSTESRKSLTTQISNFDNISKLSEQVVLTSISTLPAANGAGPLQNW

Chain of orexin B (O43612 70-97): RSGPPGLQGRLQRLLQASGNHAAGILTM

orexin B (from UniProt O43612 70-97) (peptide)
Gq-mediated inositol phosphate (IP) accumulation in HEK293 cells transfected with OX2R and Gαq; EC50 of orexin B: 8.2 nM
